Test results reported in paper PMC4980298 (Molecular microbiology, 2016).

Target: T1, FimL fused to T18 or T25 (BACTH) (P. aeruginosa PAO1, UniProt Q9I2S3 1-562)
T1 sequence: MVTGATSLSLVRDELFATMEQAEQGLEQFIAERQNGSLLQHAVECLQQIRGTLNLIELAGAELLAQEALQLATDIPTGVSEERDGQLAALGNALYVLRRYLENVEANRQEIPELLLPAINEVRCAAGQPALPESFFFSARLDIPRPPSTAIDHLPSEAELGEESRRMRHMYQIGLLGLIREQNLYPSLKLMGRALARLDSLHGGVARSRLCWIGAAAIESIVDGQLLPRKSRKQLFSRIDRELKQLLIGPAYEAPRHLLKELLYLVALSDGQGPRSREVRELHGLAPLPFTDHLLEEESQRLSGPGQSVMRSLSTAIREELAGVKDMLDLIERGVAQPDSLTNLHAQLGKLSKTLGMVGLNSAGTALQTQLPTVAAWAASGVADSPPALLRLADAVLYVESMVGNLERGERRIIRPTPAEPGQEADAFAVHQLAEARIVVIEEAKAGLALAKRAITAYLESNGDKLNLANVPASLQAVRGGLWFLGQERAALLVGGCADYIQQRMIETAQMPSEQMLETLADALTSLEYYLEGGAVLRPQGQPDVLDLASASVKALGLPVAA
Test: two-hybrid

B1: PilG fused to T18 or T25 (BACTH) (natural protein)
chain: MEQQSDGLKVMVIDDSKTIRRTAETLLKKVGCDVITAIDGFDALAKIADTHPNIIFVDIMMPRLDGYQTCALIKNNSAFKSTPVIMLSSKDGLFDKAKGRIVGSDQYLTKPFSKEELLGAIKAHVPSFTPVDAVS
fold increase in β-galactosidase activity over controls: ~20 fold
